Data on three molecules can be found in US20040235717A1, “Suppression of androgen receptor transactivation through new pathways to ar and ar coactivators and repressors” (priority 2001, published 2004).

For experiment [1], the system named is AR transactivation. Put plainly: AR transactivation, MMTV-luc / (ARE)4-luc luciferase reporter assay. It is filed as cell-based. Conditions: LNCaP. For orientation: A reporter such as luciferase makes a cellular process visible.
In experiment [2] the test system is AR transactivation. Put plainly: AR transactivation with Smad3/Smad4, CAT reporters in PC3-AR2, PC-3 and LNCaP cells. It counts as cell-based, human. Conditions: PC3-AR2, MMTV-CAT. The procedure:
32. […] LNCaP cell were transfected with Smad3 or Smad4 expression vector instead of PC-3(AR)2 cells in experiments otherwise identical with those in A (B), PC-3(AR)2 cells stably transfected with AR were over-expressed with the indicated amounts of Smad3 or Smad4 or SRC-1. 3 μg of MMTV-CAT was used as a reporter plasmid in all experiments. All values represent the averages±SD of four independent experiments. […] PSA expression level was determined by Northern blotting. The probe was obtained from exon 1 of the PSA gene and labeled with [α-^32P] dCTP. A β-actin probe was used as a control for equivalent mRNA loading. (C, Table 1) The RNA samples from (A) were reverse transcribed to cDNAs and all of the samples were subjected to real-time CR using an ABI Prism 7700 Sequence Detection System (Perkin-Elmer Applied bio systems). PCR was performed using the SYBR Green PCR Core Reagents kit (Perkin-Elmer Applied Bio systems). PSA and β-actin forward, reverse primers concentrations were 2.5 μM. To reduce variability between replicates, PCR premixes which contained all reagents except for total RNA were prepared and aliquoted into 1.5 ml microfuge tubes. Specific PCR amplification products were detected by the fluorescent double-stranded DNA-binding dye SYBR Green core reagent kit. Experiments were performed with triplicates for each data point.
37. […] (A) PC3-AR2, SW480·C7, and PC-3 cells were transiently co-transfected with either MMTV-CAT, PSA-CAT, 5XARE-CAT, or (TAT)2-CAT (3 μg), in the presence of AR, Smad3, Smad4 or Smad3/Smad4 as indicated. Each CAT activity is presented relative to the transactivation observed in the absence of Smad3. All values represent the mean±SD of three independent experiments.
333. Human prostate cancer DU145 cells and PC-3 cells were maintained in Dulbecco's Minimum Essential Medium containing penicillin (25 U/ml), streptomycin (25 μg/ml), and 5% fetal calf serum. Transfections were performed using the calcium phosphate precipitation method and cells were harvested after 24 h for the chloramphenicol acetyltransferase (CAT) assay, as described previously (Kang, et al. (1999) J. Biol. Chem. 274, 8570-8576). The CAT activity was visualized and quantitated by STORM 840 (Molecular Dynamics). At least three independent experiments were carried out in each case. The SW480·C7 cells and PC-3(AR)2 cells are the gifts from Dr. Eric J. Stanbridge and Dr. T. J. Brown

The target in experiment [3] is T1, AR-Smad3 interaction (Homo sapiens, UniProt P10275).
T1 construct: in vitro transcribed/translated [^35S]-labeled full-length AR and GST-Smad3 (2 μg); made in house; host or cells: AR: TNT-coupled reticulocyte lysate (Promega); GST-Smad3: E. coli BL21 (DE3) pLysS
T1 sequence (P10275 1-920): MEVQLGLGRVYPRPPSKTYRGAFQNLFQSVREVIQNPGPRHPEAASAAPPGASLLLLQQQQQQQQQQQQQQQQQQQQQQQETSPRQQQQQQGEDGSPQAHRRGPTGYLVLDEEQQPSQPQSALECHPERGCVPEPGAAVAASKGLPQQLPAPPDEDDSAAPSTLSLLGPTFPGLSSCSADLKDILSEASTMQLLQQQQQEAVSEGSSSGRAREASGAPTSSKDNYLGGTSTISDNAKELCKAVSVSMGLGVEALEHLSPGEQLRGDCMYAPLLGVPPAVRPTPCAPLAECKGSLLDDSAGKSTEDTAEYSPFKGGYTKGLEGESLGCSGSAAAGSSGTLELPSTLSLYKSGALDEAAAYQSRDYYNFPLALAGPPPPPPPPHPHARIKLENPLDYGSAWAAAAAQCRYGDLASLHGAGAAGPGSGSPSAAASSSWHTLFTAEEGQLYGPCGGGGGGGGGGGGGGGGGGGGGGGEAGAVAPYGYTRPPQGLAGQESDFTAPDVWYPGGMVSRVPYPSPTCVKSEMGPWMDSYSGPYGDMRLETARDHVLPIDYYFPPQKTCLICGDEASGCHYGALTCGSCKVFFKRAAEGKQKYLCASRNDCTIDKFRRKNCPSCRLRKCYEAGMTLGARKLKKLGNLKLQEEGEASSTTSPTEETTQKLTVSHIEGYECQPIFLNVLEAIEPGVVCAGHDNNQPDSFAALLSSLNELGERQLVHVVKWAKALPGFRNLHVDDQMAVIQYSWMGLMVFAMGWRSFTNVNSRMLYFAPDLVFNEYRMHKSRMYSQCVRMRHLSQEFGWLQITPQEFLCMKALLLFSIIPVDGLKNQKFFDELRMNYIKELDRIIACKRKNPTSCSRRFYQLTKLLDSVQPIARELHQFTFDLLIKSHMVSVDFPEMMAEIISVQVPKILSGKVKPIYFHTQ
In words: GST-Smad3 pull-down of AR with added Smad4. Conditions: GST-Smad3, [35S]-AR, purified Smad4 added. It is filed as binding. How it is done: 34. […] Complex bound to GST columns was subjected to SDS-PAGE and autoradiography. […] (C) The indicated amounts of purified Smad4 proteins were added to fixed volumes of in vitro transcribed/translated [^35S]-labeled full-length AR and GST-Smad3 (2 μg) to test for interaction. Bands were detected using a phosphoimager. A representative blot of three independent experiments is shown.
335. Fusion proteins of GST-Smad3 and GST-AR, and GST protein alone were obtained by transforming expressing plasmids into BL21 (DE3) pLysS strain competent cells followed with 1 mM IPTG induction. GST-fusion proteins then were purified by Glutathione-Sepharose™ 4B (Pharmacia). The wtAR and deletion mutant AR (mtAR) proteins labeled with [^35S] were generated in vitro using the TNT-coupled reticulocyte lysate system (Promega). […] The bound proteins were separated on an 8% SDS-polyacrylamide gel and visualized by using autoradiography.

Experiment [4] has as its system PSA mRNA expression. Put plainly: PSA mRNA expression in LNCaP cells, Northern blot. It is filed as cell-based. Conditions: presence of androgen.
For experiment [5], the system named is LNCaP cells. Put plainly: PTEN-induced apoptosis in LNCaP cells, TUNEL assay. It counts as cell-based.
Experiment [6] deals with AR transactivation. Put plainly: AR transactivation, (ARE)4-luc in CWR22 cells. It is filed as cell-based, human. How it is done:
(§1) 31. […] (D) The LNCaP cells were transfected with plasmids as indicated for 16 h, and the medium was changed to 0.1% CDS media for 2 days. The cell apoptosis was determined by TUNEL assay (E) The LNCaP cells were transfected with plasmids as indicated for 16 h, harvested, and the cell extracts were subjected to SDS-PAGE. The Akt activity was determined by Western blotting using phospho(S473)-Akt antibody. (F) The U87MG cells were transfected with plasmids as indicated for 16 h, and the medium was changed 0.1% CDS media for 2 days. The cell apoptosis was determined by TUNEL assay. Data for luciferase activity and apoptosis are means±s.d. from three independent experiments.
312. […] The cells were lysed and the luciferase activity was detected by the dual luciferase assay according to standard procedures.

The subject of experiment [7] is U87MG cells. Put plainly: PTEN-induced apoptosis in AR-negative U87MG cells, TUNEL assay. It is filed as cell-based. How it is done:
as §1
311. For the apoptosis assay, the cells were transfected with plasmids for 24 h and grown in 0.1% charcol-stripped serum (CDS) media. The apoptosis was determined 2 days after transfection using the TUNEL assay according to the standard procedures (Oncogene). At least 200 cells were scored for each sample and data are means±s.d. from three independent experiments.

In experiment [8] the test system is Akt. Put plainly: Akt activity in LNCaP cells, Western blot with phospho-Akt (Ser473) antibody. Conditions: LNCaP. It is filed as cell-based. How it is done:
18. […] (A) Akt suppressed androgen/AR-induced p21 promoter activity. […] (B) Androgen/AR-induced PC-3(AR)6 apoptosis and p21 protein expression was blocked by Akt PC-3(AR)6 was transfected with pCDNA3, cAkt, or dAkt, as indicated, for 16 h. […] (C) AR-induced p21 protein expression was enhanced by dAkt in LNCaP cells. […] LNCaP stable transfection with dAkt was confirmed by western blot assay using phospho-Akt (Ser473) antibody. […] TPA was then added for another 24 h and cell apoptosis was determined by TUNEL assay. […] IGF-1 was added for another 30 min, followed by 10 nM TPA treatment for another 24 h. The apoptosis was determined by TUNEL assay. The data are means±s.d. from three independent experiments.
as §1
In general terms: Immunoblotting shows a protein as a band on a membrane.

For experiment [9], the system named is interaction between AR and PTEN. In words: Co-immunoprecipitation of AR and PTEN in CWR22 cells. It counts as cell-based, human. The procedure:
28. […] (C) The cell lysates from the CWR22 were immunoprecipitated by anti-PTEN antibody, followed by Western blot analysis. […] The cells were harvested for co-immunoprecipitation. Lane 1: 10% input; Lane 2: IP by non-immune IgG; Lane 3: IP by anti-AR antibody; Lane 4: The PTEN protein was depleted from the cell lysates by anti-PTEN antibody before IP by anti-AR antibody; Lane 5: IP by anti-PTEN antibody. (E) CWR22 cells were transfected with vector or Akf for 48 h and the cells were harvested for immunoprecipitation assay.
314. The immunoprecipitation and Western blotting were performed as previously described (Qiu et al. (1998) Nature 393, 83-5). The cell extracts (1 mg) were immunoprecipitated with the indicated antibody. The immunocomplexes were subjected to 8% SDS-PAGE and immunoblotted with the indicated antibody.

The test system of experiment [10] is AR protein levels. In words: AR protein (Western blot) and AR mRNA (Northern blot) levels. Conditions: LNCaP; 10 nM DHT. It is filed as cell-based.

B1: PTEN-#1: PTEN fragment (aa, 1-107) that does not interact with AR (protein)
chain: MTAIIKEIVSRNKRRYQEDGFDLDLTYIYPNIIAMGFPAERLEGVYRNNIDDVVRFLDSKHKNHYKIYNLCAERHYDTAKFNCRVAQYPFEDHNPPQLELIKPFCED
modifications: left off: a dimerising Fc or GST
Consider B1, for which the “Effect on PTEN functions (AR degradation, AR transactivation)” value in experiment [1] is on record as “only marginal effect”.

B2: Smad4: candidate tumor suppressor, shared component of Smad signaling (protein)
chain: MDNMSITNTPTSNDACLSIVHSLMCHRQGGESETFAKRAIESLVKKLKEKKDELDSLITAITTNGAHPSKCVTIQRTLDGRLQVAGRKGFPHVIYARLWRWPDLHKNELKHVKYCQYAFDLKCDSVCVNPYHYERVVSPGIDLSGLTLQSNAPSSMMVKDEYVHDFEGQPSLSTEGHSIQTIQHPPSNRASTETYSTPALLAPSESNATSTANFPNIPVASTSQPASILGGSHSEGLLQIASGPQPGQQQNGFTGQPATYHHNSTTTWTGSRTAPYTPNLPHHQNGHLQHHPPMPPHPGHYWPVHNELAFQPPISNHPAPEYWCSIAYFEMDVQVGETFKVPSSCPIVTVDGYVDPSGGDRFCLGQLSNVHRTEAIERARLHIGKGVQLECKGEGDVWVRCLSDHAVFVQSYYLDREAGRAPGDAVHKIYPSAYIKVFDLRQCHRQMQQQAATAQAAAAAQAAAVAGNIPGPGSVGGIAPAISLSAAAGIGVDDLRRLCILRMSFVKGWGPDYPRQSIKETPCWIEIHLHRALQLLDEVLHTMPIADPQPLD
With B2, the “Effect on Smad3-enhanced AR transactivation” value in [2] was “significantly repressed”. Also, the “Effect on androgen-activated AR transactivation” value in experiment [2] (10^−8 M DHT) was “slightly suppressed”. Moreover, the AR-Smad3 interaction entry in experiment [3] is listed as “decrease this AR-Smad3 interaction in a dose-dependent manner”. In experiment [4], the “Effect on androgen-induced PSA mRNA expression” value is given as “slight suppression of PSA mRNA expression”.

B3: ARf: the interaction domain within AR (aa; 483-651) (protein)
chain: YTRPPQGLAGQESDFTAPDVWYPGGMVSRVPYPSPTCVKSEMGPWMDSYSGPYGDMRLETARDHVLPIDYYFPPQKTCLICGDEASGCHYGALTCGSCKVFFKRAAEGKQKYLCASRNDCTIDKFRRKNCPSCRLRKCYEAGMTLGARKLKKLGNLKLQEEGEASSTTS
modifications: left off: small tags and cut ends
With B3, the “Effect on PTEN-induced apoptosis” value in experiment [5] was “markedly reduced PTEN-induced apoptosis”; in experiment [7], “only marginal effects”. Further, the “Effect on PTEN suppression of AR transactivation” value in experiment [1] is given as “dramatically reduce”; in experiment [6] it was “significantly reduce PTEN suppressive effect on AR transactivation”. The “Effect on PTEN-mediated inhibition of Akt activity” value in [8] is on record as “little influence”. Further, the “Interaction between AR and PTEN” value in experiment [9] is “disrupted the interaction between AR and PTEN”. Further, in [10], the “Effect on PTEN-mediated promotion of AR degradation” value is “dramatically reduce”.
